Data as given in article PMC8809517, “Cofactor-independent RNA editing by a synthetic S-type PPR protein”.

T1: GFP-9S library array, motif 4 ND N98D;D124E (synthetic construct, N98D;D124E)
T1 chain: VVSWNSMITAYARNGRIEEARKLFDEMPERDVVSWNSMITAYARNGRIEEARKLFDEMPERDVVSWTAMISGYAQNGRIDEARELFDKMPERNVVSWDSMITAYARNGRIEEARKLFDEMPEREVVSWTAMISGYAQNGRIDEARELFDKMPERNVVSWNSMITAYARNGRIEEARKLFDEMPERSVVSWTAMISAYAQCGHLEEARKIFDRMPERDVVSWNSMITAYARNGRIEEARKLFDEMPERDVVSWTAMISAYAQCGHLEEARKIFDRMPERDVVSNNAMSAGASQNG

T2: GFP-9S library array, motif 4 ND N98F;D124K (synthetic construct, N98F;D124K)
T2 chain: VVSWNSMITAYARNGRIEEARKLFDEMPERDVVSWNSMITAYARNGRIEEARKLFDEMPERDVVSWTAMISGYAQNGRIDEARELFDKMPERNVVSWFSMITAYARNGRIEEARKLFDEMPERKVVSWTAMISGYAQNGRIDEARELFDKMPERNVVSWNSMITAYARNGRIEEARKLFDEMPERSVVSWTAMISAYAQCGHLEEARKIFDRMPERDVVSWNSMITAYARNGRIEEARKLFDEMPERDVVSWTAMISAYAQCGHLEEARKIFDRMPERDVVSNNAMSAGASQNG

T3: GFP-9S library array, motif 4 ND N98E;D124L (synthetic construct, N98E;D124L)
T3 chain: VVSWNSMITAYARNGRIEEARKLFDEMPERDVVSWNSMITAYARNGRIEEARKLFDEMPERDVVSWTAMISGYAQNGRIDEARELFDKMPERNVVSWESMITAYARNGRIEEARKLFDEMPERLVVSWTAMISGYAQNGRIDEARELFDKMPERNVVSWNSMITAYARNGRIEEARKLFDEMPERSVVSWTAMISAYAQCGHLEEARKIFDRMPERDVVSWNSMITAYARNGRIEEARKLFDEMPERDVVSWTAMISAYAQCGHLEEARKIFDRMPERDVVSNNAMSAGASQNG

T4: GFP-9S library array, motif 4 ND N98K (synthetic construct, N98K)
T4 chain: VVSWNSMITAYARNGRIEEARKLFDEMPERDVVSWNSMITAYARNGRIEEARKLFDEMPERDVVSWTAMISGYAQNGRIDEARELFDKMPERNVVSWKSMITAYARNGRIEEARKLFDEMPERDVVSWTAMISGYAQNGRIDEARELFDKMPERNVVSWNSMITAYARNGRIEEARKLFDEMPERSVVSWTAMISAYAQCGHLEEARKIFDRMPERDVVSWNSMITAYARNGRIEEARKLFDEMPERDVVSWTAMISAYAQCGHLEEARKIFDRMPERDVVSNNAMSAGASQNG

T5: GFP-9S library array, motif 4 ND N98W;D124S (synthetic construct, N98W;D124S)
T5 chain: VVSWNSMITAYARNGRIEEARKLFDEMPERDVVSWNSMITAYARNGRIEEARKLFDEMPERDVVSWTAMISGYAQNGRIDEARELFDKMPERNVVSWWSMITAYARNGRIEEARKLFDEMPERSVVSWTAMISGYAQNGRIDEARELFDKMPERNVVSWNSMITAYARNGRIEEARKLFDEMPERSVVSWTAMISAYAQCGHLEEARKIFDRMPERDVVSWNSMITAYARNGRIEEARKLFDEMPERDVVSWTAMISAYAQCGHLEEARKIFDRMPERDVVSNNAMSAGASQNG


Tests used:
Experiment in all cases: high-throughput RNA pulldown from lysate on Ni-NTA beads; HRP: 50 mM Tris pH 8, 150 mM NaCl, 1 mM beta-mercaptoethanol, 50 ug/ml BSA, 3 ug/ml yeast RNA, 0.5% heparin; ITC and FP: Tris pH 8, 200 mM KCl, 5% glycerol; MST: 50 mM Tris pH 8, 200 mM NaCl, 1 mM DTT, BSA, heparin, 0.05% Tween 20
Settings in all cases: tags: N-terminal His-eGFP
[1] = target: T1, GFP-9S library array, motif 4 ND …
[2] = target: T2, GFP-9S library array, motif 4 ND …
[3] = target: T3, GFP-9S library array, motif 4 ND …
[4] = target: T4, GFP-9S library array, motif 4 ND N98K
[5] = target: T5, GFP-9S library array, motif 4 ND …

Binder	Kd ([1]; label: 5' Cy5)	Kd ([2]; label: 5' Cy5)	Kd ([3]; label: 5' Cy5)	Kd ([4]; label: 5' Cy5)	Kd ([5]; label: 5' Cy5)	Kd ([1]; label: 5' IRDye 800CW)	Kd ([2]; label: 5' IRDye 800CW)	Kd ([3]; label: 5' IRDye 800CW)	Kd ([4]; label: 5' IRDye 800CW)	Kd ([5]; label: 5' IRDye 800CW)
AUUAGACGUGA (ssRNA) [Cy5-rpoA-G]	95.2 nM	63.6 nM	69 nM	315 nM	79.8 nM					
AUUACACGUGA (ssRNA) [Cy5-rpoA]	124 nM	160 nM	63.1 nM	189 nM	89.2 nM					
AUUAAACGUGA (ssRNA) [IR-rpoA-A]						343 nM	121 nM	147 nM	409 nM	247 nM
AUUAUACGUGA (ssRNA) [IR-rpoA-U]						283 nM	667 nM	196 nM	279 nM	263 nM
